The supplement of paper PMC10126150
± gives the standard deviation of the averaged measurements.

Tested on: ATP
Assay: switch fluorescence ratio, 500 uM ATP over buffer (Cy3 cluster intensity, sum of 5 cycles each) (fold (ratio)); higher = stronger signal-on switching upon ATP binding; sequences stand for … in TCGTCGGCAGCGTCAGATGTGTATAAGAGACAGTTTTTTTTTTTTTTTTTTTTTTTTT…TC
Details: aptamer strand: ATP DNA aptamer (quencher-CACCTGGGGGAGTATTGCGGAGGAAGG + anchor), 100 nM annealed; ATP concentration: 500 uM
Method in brief: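 Per cluster, summed Cy3 intensity from the target cycles was divided by that from the buffer cycles to give the fluorescence ratio, then averaged per switch-domain sequence. Clusters outside 100-1000 RFU were excluded. The Cy3-labelled switching-strand clusters, on a modified Illumina MiSeq flow-cell, were annealed to 100 nM quencher-labelled ATP aptamer and imaged in selection buffer, then after 15 min with 500 uM ATP at 22 °C, for five cycles with NaOH stripping and re-annealing between them.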
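Note: ATP exposure 15 min at 22 °C before imaging.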

Sequence | switch fluorescence ratio
CGAATATCAT | 0.9747 ± 0.0047
CGAATATGAT | 1.02 ± 0.058
CGAATATTGA | 0.959 ± 0.038
CGAATTGATA | 1.01 ± 0.013
CGAATTTGCT | 1.01 ± 0.0079
CGACAAAAAT | 1.89 ± 1
CGACACCGTG | 1.025 ± 0.0013
CGACACTTAG | 1.049 ± 0.0091
CGACATCGCA | 1.321 ± 0.0068
CGACATGAAT | 1.037 ± 0.0082
CGACATTGAG | 0.967 ± 0.012
CGACATTGCA | 1.09 ± 0.022
CGACCAGATA | 1.078 ± 0.0037
CGACCATTAA | 1.264 ± 0.0043
CGACCCTGGA | 1.105 ± 0.01
CGACCTTGGC | 1.02 ± 0.1
CGACGAATAG | 1.29 ± 0.063
CGACGACAGG | 1.35 ± 0.024
CGACGTATTG | 1.02 ± 0.03
CGACGTTAGT | 0.995 ± 0.025
CGACTAAAAT | 1.013 ± 0.0066
CGACTATCGC | 1.12 ± 0.06
CGACTGCAGT | 1.19 ± 0.014
CGACTGGCTG | 1.01 ± 0.049
CGAGAACTGG | 1.09 ± 0.14
CGAGAAGTTC | 1.02 ± 0.091

Sequence | switch fluorescence ratio
CGAGACAGGA | 1.007 ± 0.0017
CGAGAGGTGG | 1.04 ± 0.055
CGAGATTGGT | 0.973 ± 0.016
CGAGCATTGA | 1.12 ± 0.012
CGAGCATTGT | 1.16 ± 0.031
CGAGCATTTA | 1.325 ± 0.012
CGAGCGGCTA | 1.016 ± 0.0013
CGAGCGGTTG | 0.999 ± 0.013
CGAGCTCCAT | 1.015 ± 0.0054
CGAGGAAAGG | 0.9865 ± 0.0089
CGAGGAAATG | 1.06 ± 0.011
CGAGGCAAGT | 5.07 ± 1.3
CGAGGCTCGT | 1.02 ± 0.065
CGAGGGATGT | 0.982 ± 0.034
CGAGGGATTT | 1.05 ± 0.013
CGAGGGCTAG | 1.04 ± 0.074
CGAGGGCTGA | 1.02 ± 0.015
CGAGGGGACG | 1 ± 0.013
CGAGGGGAGT | 1.006 ± 0.0011
CGAGGGGGGA | 0.996 ± 0.028
CGAGGGGTAG | 0.996 ± 0.026
CGAGGGTAAC | 0.983 ± 0.029
CGAGGGTACG | 1 ± 0.032
CGAGGTTGAC | 1.0385 ± 0.00054
CGAGTAAACG | 1.02 ± 0.017
CGAGTAAATG | 1.01 ± 0.021

Sequence | switch fluorescence ratio
CGAGTACTGG | 1.03 ± 0.016
CGAGTATTGG | 0.974 ± 0.018
CGAGTCCCCT | 1.04 ± 0.033
CGAGTGGGGG | 0.987 ± 0.029
CGAGTGTGTG | 0.97 ± 0.024
CGAGTTACGG | 1.01 ± 0.019
CGAGTTAGGC | 1.03 ± 0.063
CGAGTTGATC | 0.973 ± 0.028
CGAGTTTG | 0.98 ± 0.056
CGAGTTTTTG | 0.979 ± 0.014
CGATAAATTA | 0.9971 ± 0.0044
CGATAATGAA | 1 ± 0.029
CGATACGGTG | 1.07 ± 0.035
CGATACGTTG | 0.99 ± 0.011
CGATAGATGT | 1 ± 0.024
CGATAGTATT | 0.9854 ± 0.0063
CGATATAGGA | 0.992 ± 0.011
CGATATCGAG | 0.98 ± 0.051
CGATATCGTG | 1 ± 0.019
CGATATGATG | 1.01 ± 0.062
CGATATGGGG | 1.01 ± 0.057
CGATATGGGT | 0.9801 ± 0.0026
CGATATTGCA | 1.02 ± 0.025
CGATCCAGTG | 1.39 ± 0.061
CGATGAAGGC | 1.07 ± 0.031
CGATGATATT | 1.02 ± 0.053

Sequence | switch fluorescence ratio
CGATGATCGG | 1 ± 0.016
CGATGCACGG | 1.106 ± 0.0049
CGATGCATGG | 1.71 ± 0.19
CGATGCTACA | 1.06 ± 0.048
CGATGGGATA | 1.03 ± 0.02
CGATGGGCCT | 1.01 ± 0.024
CGATGGGTCG | 1 ± 0.066
CGATGGTGAG | 1 ± 0.047
CGATGTGAGA | 1.04 ± 0.022
CGATGTGCTT | 1.01 ± 0.024
CGATGTGTGC | 1.17 ± 0.0054
CGATGTGTGT | 0.991 ± 0.035
CGATTAAGAT | 1.02 ± 0.021
CGATTAAGGC | 1.003 ± 0.0026
CGATTACTCC | 2.82 ± 0.089
CGATTATTAT | 0.975 ± 0.031
CGATTCGGGG | 1.01 ± 0.03
CGATTCGGTA | 1.01 ± 0.042
CGATTCTTTT | 0.979 ± 0.01
CGATTGCTAG | 1.02 ± 0.058
CGATTGGGGT | 1.02 ± 0.034
CGATTTCGTT | 0.984 ± 0.013
CGATTTGCCT | 0.9806 ± 0.006
CGATTTGGGC | 0.982 ± 0.021
CGATTTTGA | 0.969 ± 0.043
CGATTTTGGA | 0.9941 ± 0.0078

Sequence | switch fluorescence ratio
CGCAAAAAGT | 1.0219 ± 0.00086
CGCAAAGAAG | 1.08 ± 0.02
CGCACCATGC | 2.41 ± 0.073
CGCACCCTTT | 1.093 ± 0.0056
CGCACGGTAG | 1.05 ± 0.032
CGCACTGTGG | 1.028 ± 0.0031
CGCAGAGGCT | 1.06 ± 0.044
CGCAGAGTGG | 1.01 ± 0.018
CGCAGGAAAG | 0.973 ± 0.0023
CGCAGGATTT | 1.09 ± 0.19
CGCAGGCCTC | 1.47 ± 0.062
CGCAGGGTGG | 1.05 ± 0.022
CGCAGGTGGG | 1.08 ± 0.042
CGCAGGTTTG | 1.03 ± 0.011
CGCAGTTCTT | 1.198 ± 0.0086
CGCATTTTTT | 1.13 ± 0.12
CGCCAAATTT | 1.07 ± 0.1
CGCCACTGTG | 1.06 ± 0.044
CGCCCCTGTA | 1.04 ± 0.035
CGCCGGGTTG | 0.984 ± 0.033
CGCCGTGTCA | 1.02 ± 0.068
CGCCTGTTAG | 0.99 ± 0.016
CGCGAAAGAA | 0.9682 ± 0.0033
CGCGAACATG | 0.984 ± 0.049
CGCGAAGGCT | 1.04 ± 0.015
CGCGAATATA | 1 ± 0.019

Sequence | switch fluorescence ratio
CGCGAATTTG | 1.02 ± 0.021
CGCGACTAAA | 0.9951 ± 0.0066
CGCGAGGCGT | 1.07 ± 0.12
CGCGATAGTA | 1.27 ± 0.026
CGCGATGGGT | 1.08 ± 0.033
CGCGATGTAC | 3.82 ± 0.15
CGCGCAGGGA | 1.03 ± 0.013
CGCGCGGTTT | 1.02 ± 0.041
CGCGCTTTTG | 1.01 ± 0.017
CGCGGACGGT | 1.05 ± 0.052
CGCGGATTGG | 0.9903 ± 0.0094
CGCGGCAAGG | 1.32 ± 0.31
CGCGGGAGGG | 1.04 ± 0.022
CGCGGGGGGA | 1.03 ± 0.06
CGCGGGGGTG | 1.03 ± 0.024
CGCGGGGTCC | 1.05 ± 0.048
CGCGGGTAAC | 1.036 ± 0.0077
CGCGGGTTGA | 1.053 ± 0.0094
CGCGGTACGG | 1.47 ± 0.39
CGCGGTTCTG | 1.01 ± 0.029
CGCGTAGAC | 1.66 ± 0.14
CGCGTATTGT | 0.999 ± 0.016
CGCGTGGCGG | 0.999 ± 0.024
